Reference: paper PMC10556141

Target: T1, S. cerevisiae Rad51 (S. cerevisiae), P25454
T1 chain: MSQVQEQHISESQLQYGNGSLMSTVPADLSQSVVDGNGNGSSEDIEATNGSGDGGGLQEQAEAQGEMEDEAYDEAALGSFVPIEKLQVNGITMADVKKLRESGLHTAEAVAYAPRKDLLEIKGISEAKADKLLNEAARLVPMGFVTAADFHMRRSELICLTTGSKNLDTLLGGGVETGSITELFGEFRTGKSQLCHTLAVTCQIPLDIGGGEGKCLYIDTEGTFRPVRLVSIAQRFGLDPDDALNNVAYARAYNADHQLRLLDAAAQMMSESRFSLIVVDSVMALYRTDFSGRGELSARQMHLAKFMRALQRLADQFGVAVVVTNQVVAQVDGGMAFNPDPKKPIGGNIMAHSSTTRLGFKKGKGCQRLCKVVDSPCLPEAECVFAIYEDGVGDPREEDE
Test: mass photometry; TwoMP instrument; protein diluted to about 8-10 nM decamers in the well; 50 mM Tris-acetate pH 7.5, 50 mM KCl, 5 mM MgCl2
Settings: remark: other sources report otherwise

- stoichiometry N: 15
B1: S. cerevisiae Rad51, P25454 1-400 (natural protein)
chain: MSQVQEQHISESQLQYGNGSLMSTVPADLSQSVVDGNGNGSSEDIEATNGSGDGGGLQEQAEAQGEMEDEAYDEAALGSFVPIEKLQVNGITMADVKKLRESGLHTAEAVAYAPRKDLLEIKGISEAKADKLLNEAARLVPMGFVTAADFHMRRSELICLTTGSKNLDTLLGGGVETGSITELFGEFRTGKSQLCHTLAVTCQIPLDIGGGEGKCLYIDTEGTFRPVRLVSIAQRFGLDPDDALNNVAYARAYNADHQLRLLDAAAQMMSESRFSLIVVDSVMALYRTDFSGRGELSARQMHLAKFMRALQRLADQFGVAVVVTNQVVAQVDGGMAFNPDPKKPIGGNIMAHSSTTRLGFKKGKGCQRLCKVVDSPCLPEAECVFAIYEDGVGDPREEDE
